Two variants from FireProtDB (doi:10.1073/pnas.0910421107) can be followed below.

The labels stand for the following.
B1: Ribose import binding protein RbsB, P02925 (parent)
chain: MNMKKLATLVSAVALSATVSANAMAKDTIALVVSTLNNPFFVSLKDGAQKEADKLGYNLVVLDSQNNPAKELANVQDLTVRGTKILLINPTDSDAVGNAVKMANQANIPVITLDRQATKGEVVSHIASDNVLGGKIAGDYIAKKAGEGAKVIELQGIAGTSAARERGEGFQQAVAAHKFNVLASQPADFDRIKGLNVMQNLLTAHPDVQAVFAQNDEMALGALRALQTAGKSDVMVVGFDGTPDGEKAVNDGKLAATIAQLPDQIGAKGVETADKVLKGEKVQAKYPVDLKLVVKQ

The variants in the data set derive from B1. The settings on record: Escherichia coli (strain K12), pH 7.6, Thermal, MOPS 25 mM, Potassium chloride 100 mM, structure 2DRI, whole UniProt chain shown.
The mark [1] stands for this setting: 25 °C, Quantitative cysteine reactivity.
[2] abbreviates: Quantitative cysteine reactivity.

With MNMKKLATLVSAVALSATVSANAMAKDTIALVVSTLNNPFFVSLKDGAQKEADKLGYNLVVLDSQNNPAKELANVQDLTVRGTKILCINPTDSDAVGNAVKMANQANIPVITLDRQATKGEVVSHIASDNVLGGKIAGDYIAKKAGEGAKVIELQGIAGTSAARERGEGFQQAVAAHKFNVLASQPADFDRIKGLNVMQNLLTAHPDVQAVFAQNDEMALGALRALQTAGKSDVMVVGFDGTPDGEKAVNDGKLAATIAQLPDQIGAKGVETADKVLKGEKVQAKYPVDLKLVVKQ [L87C], under “25 °C, Activity”, the “ddG of mutation (higher = less stable)” value was found to be 2.7 kcal/mol, the “unfolding enthalpy (van 't Hoff)” value is 81 kcal/mol and the unfolding free energy is 3.2 kcal/mol. Moreover, under setting [1], the “unfolding enthalpy (van 't Hoff)” value is 81 kcal/mol and the unfolding free energy was 3.2 kcal/mol. Also, under “Activity”, the melting temperature (Tm) came out at 54 °C and the “change of melting temperature, mutant - wild type (higher = more stable)” value (“change of melting temperature, mutant” for short) is -8.6 °C. In addition, under setting [2], the Tm was found to be 54 °C and the “change of melting temperature, mutant” value was -8.6 °C.
With MNMKKLATLVSAVALSATVSANAMAKDTIALVVSTLNNPFFVSLKDGAQKEADKLGYNLVVLDSQNNPAKELANVQDLTVRGTKILLINPTDSDAVGNAVKMANQANIPVITLDRQATKGEVVSHIASDNVLGGKIAGDYIAKKAGEGAKVIELQGIAGTSAARERGEGFQQAVAAHKFNVLASQPADFDRIKGLNVMQNLLTAHPDVQAVFCQNDEMALGALRALQTAGKSDVMVVGFDGTPDGEKAVNDGKLAATIAQLPDQIGAKGVETADKVLKGEKVQAKYPVDLKLVVKQ [A213C], under setting [1], the “unfolding enthalpy (van 't Hoff)” value is 91 kcal/mol and the unfolding free energy came to 4.1 kcal/mol. Further, where the note is “Activity”, the Tm is 56 °C and the “change of melting temperature, mutant” value was -6.6 °C. Also, under setting [2], the Tm was 56 °C and the “change of melting temperature, mutant” value is -6.6 °C.
